Source: PMC12449476, “Transient ligand contacts of the intrinsically disordered N-terminus of neuropeptide Y2 receptor regulate arrestin-3 recruitment” (Nature Communications, 2025)
Several values for one entry are separate records, joined by “and”; a condition that tells them apart may be missing. Identical values can stand only once. Blank lines part the entries; values can stand above or below the substance they belong to.

How the values were obtained:
[1] = target: Nluc-Y2R-eYFP D42A-S43A-T44A (human) (UniProt P49146); assay: FRET or BRET; NanoBRET equilibrium binding: dilution series of K18-Tamra-NPY on HEK293 membranes with Nluc-Y2R-eYFP variants, HBSS, 20 mM HEPES pH 7.4, 0.1% BSA, 10 min at room temperature; unspecific binding with 100 µM JNJ-31020028; biphasic fit (high- and low-affinity state)
[2] = target: Nluc-Y2R-eYFP Δ2–41 (human) (UniProt P49146); assay: as above
[3] = target: Δ2–41 variant or charge reversal in the acidic patches (Nluc-Y2R-eYFP variants, ligand dissociation); assay: FRET or BRET; NanoBRET ligand dissociation from the low-affinity state: membranes pre-incubated with 300 nM K18-Tamra-NPY for 10 min, re-binding blocked by 50 µM JNJ-31020028, BRET decay for 20 min, one-phase dissociation fit
[4] = target: Neuropeptide Y (Homo sapiens) (UniProt P01303); settings: cited from earlier work
[5] = target: Y2R-eYFP D35–E39K (human) (UniProt P49146); assay: FRET or BRET; BRET between Nluc-arrestin-3 and Y2R-eYFP variants in live HEK293 cells, concentration-response to NPY, read 10 min after stimulation at 37 °C
[6] = target: Tetramethylrhodamine-NPY (Tamra-NPY) (porcine); assay: fluorescence polarisation; fixed 50 nM Tamra-NPY, titrated with Y2R-loaded bicelles (x axis: log c, bicelles / M); empty bicelles as control

lipid-reconstituted cysteine-deficient Y2R (Y2R-Δ6), sequence (P49146 whole entry, stated change not applied): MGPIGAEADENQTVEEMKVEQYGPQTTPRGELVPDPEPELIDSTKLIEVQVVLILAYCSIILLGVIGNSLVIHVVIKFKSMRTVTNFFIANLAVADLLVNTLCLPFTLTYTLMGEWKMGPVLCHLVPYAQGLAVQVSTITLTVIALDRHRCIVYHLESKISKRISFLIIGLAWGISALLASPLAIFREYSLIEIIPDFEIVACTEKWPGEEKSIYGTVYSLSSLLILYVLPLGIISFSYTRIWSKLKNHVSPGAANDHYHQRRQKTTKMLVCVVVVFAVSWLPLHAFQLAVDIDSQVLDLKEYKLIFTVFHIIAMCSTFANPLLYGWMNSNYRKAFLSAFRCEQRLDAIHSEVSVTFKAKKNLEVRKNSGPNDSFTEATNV
Neuropeptide Y receptor type 2, sequence (P49146 whole entry): as the sequence (P49146 whole entry, stated change not applied) above
Nluc-Y2R-eYFP Δ2–41 (human), sequence (P49146 other isoform, or with tags, fused parts or gaps): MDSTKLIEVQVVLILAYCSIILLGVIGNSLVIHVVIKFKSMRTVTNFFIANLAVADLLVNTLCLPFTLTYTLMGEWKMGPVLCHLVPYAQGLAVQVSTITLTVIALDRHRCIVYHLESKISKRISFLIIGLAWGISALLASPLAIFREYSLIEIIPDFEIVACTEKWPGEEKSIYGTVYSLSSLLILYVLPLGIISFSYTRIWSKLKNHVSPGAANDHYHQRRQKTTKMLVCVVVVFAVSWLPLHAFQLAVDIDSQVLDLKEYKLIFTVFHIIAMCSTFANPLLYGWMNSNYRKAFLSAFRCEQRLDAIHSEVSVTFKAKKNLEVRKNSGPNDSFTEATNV
Nluc-Y2R-eYFP D42A-S43A-T44A (human), sequence (P49146 whole entry D42A/S43A/T44A): as the sequence (P49146 whole entry, stated change not applied) above, with D42A, S43A, T44A counted along it
Y2R-eYFP D35–E39K (human), sequence (P49146 whole entry E39K): as the sequence (P49146 whole entry, stated change not applied) above, with E39K counted along it

- fold reduction of the affinity of the low-affinity state against wild-type Y2R [1]: 3 fold
- fold reduction of the low-affinity binding constant against wild-type Y2R [2]: 2 fold
- fold increase of ligand dissociation (koff) against wild-type Y2R [3]: 2 fold and 3 fold
Substance: K18-Tamra-NPY (peptide)

Substance: Neuropeptide Y receptor type 2 (from UniProt P49146)
- Kd [4]: 300 nM

- BRETmax [5]: 49%
Substance: Nluc-arrestin-3 (from UniProt P32121 1-409) (natural protein)

- Kd [6]: 44.5 nM
Substance: lipid-reconstituted cysteine-deficient Y2R (Y2R-Δ6) (from UniProt P49146 1-381) (receptor)
